Results on one substance are retold here after publication PMC2686270.

This test deals with 6xHis-SpaK G392A (C-terminal half of SpaK) (Bacillus subtilis).

As for “6xHis-SpaK H247Q (C-terminal half of SpaK) (domain or fragment)”, the autophosphorylation restored by combining the two SpaK mutants, each inactive alone (intermolecular complementation; 32P-ATP, SDS-PAGE and autoradiography, Fig. 5B lane 6) (% of wild type) worked out at 25.
